Results reported in patent US20220243184, “ENGINEERED Cas-Transposon SYSTEM FOR PROGRAMMABLE AND SITE-DIRECTED DNA TRANSPOSITIONS” (THE TRUSTEES OF COLUMBIA UNIVERSITY IN THE CITY OF NEW YORK, published 2022).

Biological target: Himar1C9-XTEN-dCas9 (Himar-dCas9) (synthetic fusion (Haematobia irritans …, UniProt Q99ZW2 SEQ:1-1732))
Assay: no gRNA; baseline insertion hotspot
Conditions: tags: C-terminal 6xHis; chain copies: 2 inferred
Protocol: FIG. 2A through FIG. 2C. Himar-dCas9 specificity is dependent on gRNA spacing and target site. (FIG. 2A) Illustration of gRNA strand orientation and spacings to TA insertion site gRNA1 (SEQ ID NO: 53) and gRNA2 (SEQ ID No: 54) and target DNA (SEQ ID No: 55). (FIG. 2B) PCR analysis of transposon-target junctions from in vitro reactions containing 30 nM Himar-dCas9/gRNA complex, 2.27 nM transposon donor DNA, and 2.27 nM target DNA. Reactions (n=3) were run using gRNAs with spacings between 5 and 18 bp from the TA insertion site. Non-targeting gRNA (gRNA_5), no gRNA, and no transposase controls were also performed. Arrowheads indicate expected site-specific PCR products for each gRNA. Error bars indicate standard deviation. (FIG. 2C) Transposon sequencing results for reactions with no gRNAs (left, n=4) or with gRNA_4 (n=3), gRNA_8 (n=3), gRNA_12 (n=3), or gRNA_5 (n=3). The baseline random distribution of transposons along the recipient plasmid in each panel with a gRNA is shown in light gray.
To assess the distribution of transposon insertions around the target pGT-B1 plasmid, transposon sequencing was performed on transposition products resulting from three GFP-targeting gRNAs (gRNA_4, gRNA_8, and gRNA_12), a non-targeting gRNA, and no gRNA (FIG. 2C and FIG. 8). […]

B1: pGT-B1 position 5999 T/A-rich insertion site (dsDNA)
DNA 1: GCGAATTTTAAAATTCGC
DNA 2: GCGAATTTTAAAATTCGC
binding result: binds
